Bounds are passed on as bounds.

The values that follow come from patent US20050043232A1.

Data set [1] has as its system T1, myostatin pro peptide (wild type).
T1 sequence: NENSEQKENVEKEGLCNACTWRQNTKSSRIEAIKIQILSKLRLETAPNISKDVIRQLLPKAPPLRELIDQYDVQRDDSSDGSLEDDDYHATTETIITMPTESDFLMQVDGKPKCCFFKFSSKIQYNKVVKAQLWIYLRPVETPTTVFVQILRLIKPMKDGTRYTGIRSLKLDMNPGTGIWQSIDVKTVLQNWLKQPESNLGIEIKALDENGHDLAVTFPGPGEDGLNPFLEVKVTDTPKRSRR

In data set [2] the test system is T2, 20-mer D to A mutant peptide (SEQ ID NO:20).
T2 sequence: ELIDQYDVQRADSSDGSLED

Data set [3] relates to T3, 20-mer R to Q mutant peptide (SEQ ID NO:19).
T3 sequence: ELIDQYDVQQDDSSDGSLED

For data set [4], the system named is T4, 20-mer wild type myostatin pro peptide peptide (SEQ ID NO:18).
T4 sequence: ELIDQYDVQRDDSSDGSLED

For data set [5], the system named is T5, 30-mer D to A mutant peptide (SEQ ID NO:17).
T5 sequence: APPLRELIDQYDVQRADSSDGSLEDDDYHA

Data set [6] relates to T6, 30-mer R to Q mutant peptide (SEQ ID NO:16).
T6 sequence: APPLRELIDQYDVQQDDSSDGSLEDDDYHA

Data set [7] deals with T7, 30-mer wild type myostatin pro peptide peptide (SEQ ID NO:15).
T7 sequence: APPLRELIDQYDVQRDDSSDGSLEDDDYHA

Data set [8] concerns T8, 40-mer D to A mutant peptide (SEQ ID NO:14).
T8 sequence: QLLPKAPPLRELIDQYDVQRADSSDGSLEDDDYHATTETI

Data set [9] deals with T9, 40-mer R to Q mutant peptide (SEQ ID NO:13).
T9 sequence: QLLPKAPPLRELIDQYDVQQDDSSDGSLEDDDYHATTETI

In data set [10] the test system is T10, 40-mer wild type myostatin pro peptide peptide (SEQ ID NO:12).
T10 sequence: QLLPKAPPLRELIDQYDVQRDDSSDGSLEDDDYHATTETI

Data set [11] concerns the target T11, myostatin pro peptide (wild type) (Homo sapiens (Human)) (UniProt O14793).
T11 sequence: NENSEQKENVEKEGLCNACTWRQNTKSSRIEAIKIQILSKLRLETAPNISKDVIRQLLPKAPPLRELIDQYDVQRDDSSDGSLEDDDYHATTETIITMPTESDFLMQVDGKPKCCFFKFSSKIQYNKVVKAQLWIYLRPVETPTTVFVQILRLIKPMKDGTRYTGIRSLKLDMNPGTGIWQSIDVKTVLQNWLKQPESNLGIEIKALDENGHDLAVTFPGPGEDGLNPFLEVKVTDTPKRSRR
Briefly: cell-based or functional assay.

For mammalian Tolloid (mTLD), in [1], the “partial proteolytic cleavage of pro peptide in the latent complex, western blot (FIG. 3E; 1 µg complex, 250 ng proteinase, 16 hours 37° C.)” value (shortened to “partial proteolytic cleavage”) was “mTLD was consistently less active than the other three”; the “proteolytic cleavage of free pro peptide (purified away from the C-terminal dimer)” value (“proteolytic cleavage of free pro peptide” below) is listed as “All four of these proteinases also cleaved pro peptide that had been purified away from the C-terminal dimer”; the “proteolytic cleavage of pro peptide, SDS-PAGE and western blot (500 ng substrate, 100 ng protease, overnight 37° C.; free pro peptide and latent complex)” value is on record as “each of the proteases cleaved the pro peptide whether it was in a purified form or in a complex with the myostatin C-terminal dimer”.

B1: mammalian Tolloid-like-2 (mTLL-2) (enzyme, UniProt Q9WVM6 147-1012, looked up, species assumed)
Tolloid-like protein 2: ATTSRTERIWPGGVIPYVIGGNFTGTQRAIFKQAMRHWEKHTCVTFVERTDEESFIVFSYRTCGCCSYVGRRGGGPQAISIGKNCDKFGIVAHELGHVVGFWHEHTRPDRDQHVTIIRENIQPGQEYNFLKMEAGEVSSLGETYDFDSIMHYARNTFSRGVFLDTILPRRDDNGVRPTIGQRVRLSQGDIAQARKLYKCPACGETLQDTTGNFSAPGFPNGYPSYSHCVWRISVTPGEKIILNFTSMDLFKSRLCWYDYVEIRDGYWRKAPLLGRFCGDKIPESLVSSDSRLWVEFRSSSSSLGKGFFAVYEAMCGGDITKDAGQIQSPNYPDDYRPSKECVWRITVPDGFHVGLTFQSFEIERHDSCAYDYLEIRDGPTEDSTLIGHFCGYEKPEAVKSSANRLWVKFVSDGSINKAGFAANFFKEVDECSWPDHGGCEQRCVNTLGSYTCACDPGYELAADKKTCEVACGGFITKLNGTITSPGWPKEYPTNKNCVWQVVAPVQYRISLQFEAFELEGNDVCKYDFVEVRSGLSPDAKLHGKFCGSETPEVITSQSNNMRVEFKSDNTVSKRGFRAHFFSDKDECAKDNGGCQQECVNTFGSYLCRCRNGYRLHENGHDCKEAGCAYKISSAEGTLMSPNWPDKYPSRKECTWNISSTAGHRVKITFSEFEIEQHQECAYDHLELYDGTDSLAPILGRFCGSKKPDPVVATGSSLFLRFYSDASVQRKGFQAVHSTECGGRLKAEVQTKELYSHAQFGDNNYPSQARCDWVIVAEDGYGVELIFRTFEVEEEADCGYDFMEAYDGYDSSAPRLGRFCGSGPLEEIYSAGDSLMIRFHTDDTINKKGFHARYTSTKFQDALHMRK
As for B1, the “cleavage of synthetic peptide by conditioned medium containing TLL-2, C18 HPLC and mass spectrometry” value in data set [2] is “the peptides containing the D→A mutation at the P1′ position were not cleaved”; in data set [3], “The 40-mer, 30-mer, and 20-mer wild type and R→Q mutant peptides were cleaved by conditioned media containing TLL-2”; in data set [4], “The 40-mer, 30-mer, and 20-mer wild type and R→Q mutant peptides were cleaved by conditioned media containing TLL-2”; in [5], “the peptides containing the D→A mutation at the P1′ position were not cleaved”; in data set [6] it was “The 40-mer, 30-mer, and 20-mer wild type and R→Q mutant peptides were cleaved by conditioned media containing TLL-2”; in [7], “The 40-mer, 30-mer, and 20-mer wild type and R→Q mutant peptides were cleaved by conditioned media containing TLL-2”. Besides, the “cleavage of synthetic peptide by conditioned medium containing TLL-2, C18 HPLC and mass spectrometry” value in [8] is “the peptides containing the D→A mutation at the P1′ position were not cleaved”; in [9], “The 40-mer, 30-mer, and 20-mer wild type and R→Q mutant peptides were cleaved by conditioned media containing TLL-2”; in data set [10], “The 40-mer, 30-mer, and 20-mer wild type and R→Q mutant peptides were cleaved by conditioned media containing TLL-2”. Further, in data set [1], the “partial proteolytic cleavage” value is “Three of the proteinases, BMP-1, mTLL-1, and mTLL-2, were approximately equally effective in cleaving the pro peptide”. Besides, the “proteolytic cleavage of free pro peptide” value in [1] is on record as “All four of these proteinases also cleaved pro peptide that had been purified away from the C-terminal dimer”. Besides, in data set [1], the “proteolytic cleavage of pro peptide, SDS-PAGE and western blot (500 ng substrate, 100 ng protease, overnight 37° C.; free pro peptide and latent complex)” value is on record as “each of the proteases cleaved the pro peptide whether it was in a purified form or in a complex with the myostatin C-terminal dimer”.

B2: bone morphogenic protein-1 (BMP-1) (enzyme, UniProt P13497 121-986, looked up, species assumed)
Bone morphogenetic protein 1: AATSRPERVWPDGVIPFVIGGNFTGSQRAVFRQAMRHWEKHTCVTFLERTDEDSYIVFTYRPCGCCSYVGRRGGGPQAISIGKNCDKFGIVVHELGHVVGFWHEHTRPDRDRHVSIVRENIQPGQEYNFLKMEPQEVESLGETYDFDSIMHYARNTFSRGIFLDTIVPKYEVNGVKPPIGQRTRLSKGDIAQARKLYKCPACGETLQDSTGNFSSPEYPNGYSAHMHCVWRISVTPGEKIILNFTSLDLYRSRLCWYDYVEVRDGFWRKAPLRGRFCGSKLPEPIVSTDSRLWVEFRSSSNWVGKGFFAVYEAICGGDVKKDYGHIQSPNYPDDYRPSKVCIWRIQVSEGFHVGLTFQSFEIERHDSCAYDYLEVRDGHSESSTLIGRYCGYEKPDDIKSTSSRLWLKFVSDGSINKAGFAVNFFKEVDECSRPNRGGCEQRCLNTLGSYKCSCDPGYELAPDKRRCEAACGGFLTKLNGSITSPGWPKEYPPNKNCIWQLVAPTQYRISLQFDFFETEGNDVCKYDFVEVRSGLTADSKLHGKFCGSEKPEVITSQYNNMRVEFKSDNTVSKKGFKAHFFSDKDECSKDNGGCQQDCVNTFGSYECQCRSGFVLHDNKHDCKEAGCDHKVTSTSGTITSPNWPDKYPSKKECTWAISSTPGHRVKLTFMEMDIESQPECAYDHLEVFDGRDAKAPVLGRFCGSKKPEPVLATGSRMFLRFYSDNSVQRKGFQASHATECGGQVRADVKTKDLYSHAQFGDNNYPGGVDCEWVIVAEEGYGVELVFQTFEVEEETDCGYDYMELFDGYDSTAPRLGRYCGSGPPEEVYSAGDSVLVKFHSDDTITKKGFHLRYTSTKFQDTLHSRK
Regarding B2, in [1], the “partial proteolytic cleavage” value is “Three of the proteinases, BMP-1, mTLL-1, and mTLL-2, were approximately equally effective in cleaving the pro peptide”; the “proteolytic cleavage of free pro peptide” value is on record as “All four of these proteinases also cleaved pro peptide that had been purified away from the C-terminal dimer”; the “proteolytic cleavage of pro peptide in the purified latent complex, SDS-PAGE and western blot (FIG. 3D)” value is given as “incubation of the purified latent complex with purified BMP-1 resulted in complete cleavage of the pro peptide to generate a single product”; the “proteolytic cleavage of pro peptide, SDS-PAGE and western blot (500 ng substrate, 100 ng protease, overnight 37° C.; free pro peptide and latent complex)” value is listed as “each of the proteases cleaved the pro peptide whether it was in a purified form or in a complex with the myostatin C-terminal dimer”.

B3: mammalian Tolloid-like-1 (mTLL-1) (enzyme, UniProt Q62381 148-1013, looked up, species assumed)
Tolloid-like protein 1: AATSRTERIWPGGVIPYVIGGNFTGSQRAMFKQAMRHWEKHTCVTFTERSDEESYIVFTYRPCGCCSYVGRRGNGPQAISIGKNCDKFGIVVHELGHVIGFWHEHTRPDRDNHVTIIRENIQPGQEYNFLKMEPGEVNSLGERYDFDSIMHYARNTFSRGMFLDTILPSRDDNGIRPAIGQRTRLSKGDIAQARKLYRCPACGETLQESSGNLSSPGFPNGYPSYTHCIWRVSVTPGEKIVLNFTTMDLYKSSLCWYDYIEVRDGYWRKSPLLGRFCGDKVAGVLTSTDSRMWIEFRSSSNWVGKGFAAVYEAICGGEIRKNEGQIQSPNYPDDYRPMKECVWKIMVSEGYHVGLTFQAFEIERHDSCAYDHLEVRDGASENSPLIGRFCGYDKPEDIRSTSNTLWMKFVSDGTVNKAGFAANFFKEEDECAKPDRGGCEQRCLNTLGSYQCACEPGYELGPDRRSCEAACGGLLTKLNGTITTPGWPKEYPPNKNCVWQVIAPSQYRISVKFEFFELEGNEVCKYDYVEIWSGPSSESKLHGKFCGADIPEVMTSHFNNMRIEFKSDNTVSKKGFKAHFFSDKDECSKDNGGCQHECVNTMGSYTCQCRNGFVLHENKHDCKEAECEQKIHSPSGLITSPNWPDKYPSRKECTWVISAIPGHRITLAFNEFEVEQHQECAYDHLEIFDGETEKSPILGRLCGSKIPDPLMATGNEMFIRFISDASVQRKGFQATHSTECGGRLKAESKPRDLYSHAQFGDNNYPGQLDCEWLLVSERGSRLELSFQTFEVEEEADCGYDYVEVFDGLSSKAVGLGRFCGSGPPEEIYSIGDVALIHFHTDDTINKKGFYIRYKSIRYPETMHAKN
As for B3, in data set [1], the “partial proteolytic cleavage” value is “Three of the proteinases, BMP-1, mTLL-1, and mTLL-2, were approximately equally effective in cleaving the pro peptide”; the “proteolytic cleavage of free pro peptide” value is given as “All four of these proteinases also cleaved pro peptide that had been purified away from the C-terminal dimer”; the “proteolytic cleavage of pro peptide, SDS-PAGE and western blot (500 ng substrate, 100 ng protease, overnight 37° C.; free pro peptide and latent complex)” value is “each of the proteases cleaved the pro peptide whether it was in a purified form or in a complex with the myostatin C-terminal dimer”. Besides, in [11], the fraction of proteolytically-cleaved myostatin complex active in the luciferase reporter assay (against a standard curve of C-terminal dimer) was greater than 50%.
